Reference: patent US20220396632A1 (VERSEAU THERAPEUTICS, published 2022)
Residue numbers refer to the chain shown, from its start. Blank lines part the entries; values can stand above or below the binder they belong to.

Legend:
[1] = molecular target: T1, Biotin Y46,48,51(SO3) PSGL-1(42-62) peptide (human, sulfotyrosine at Y46, Y48 and Y51; C-terminal Lys-biotin); assay: ELISA, plate-bound target
T1 construct: also called fully sulfated N-terminal PSGL-1 peptide
T1 peptide: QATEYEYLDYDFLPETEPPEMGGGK
Protocol: (§1) Two ELISA methods were performed. One procedure detected mAb binding to its plate-immobilized target and the other measured the immobilized antibody's ability to capture biotinylated PSGL-1₄₂₋₆₂. […] The plate was incubated for 45 min at 37° C. Plates were washed 3 times with wash buffer (PBS containing 0.05% tween 20, pH 7.4) and a single concentration (2 to 500 nM) or serially diluted (0.002-100 nM) anti-PSGL-1 mAb was added (25 ul/well) in assay buffer into appropriate wells. The plate was incubated for 45 min at 37° C., washed 3 times, and an appropriate HRP-conjugated secondary antibody added (25 ul/well) (HRP goat anti-mouse or anti-human IgG). After 45 min incubation at 37° C., the plate was washed, and antibody bound to plate-immobilized target was determined at A450 nm using HRP substrate (3,3′,5,5′-etramethylbenzidine (TMB)). For each antibody, duplicate values were averaged and assay background was subtracted. Except for the following, ELISAs involving plate-immobilized mAb capturing of biotinylated PSGL-1₄₂₋₆₂ peptides was performed in the same manner as described above: 3 ug/mL/25 ul per well of mAb was coated directly onto microtiter plate wells; biotinylated unmodified or sulfotyrosine PSGL-1₄₂₋₆₂ was serially diluted (3 nM-3 uM) into appropriate wells, and antibody-bound peptide was detected using HRP-streptavidin (Jackson Immunoresearch, Cat. #016-030-084).

[2] = molecular target: T2, Recombinant human PSGL-1(ECD)-hFc1 (R&D Systems, Cat. 3345-PS) (human, UniProt Q14242 42-305); assay: ELISA, plate-bound target
T2 construct: Bought; Gln42-Val295 counted on AAC50061; also called PSGL-1-Fc; PSGL-1-hFc1 chimera; not shown: human IgG1 Fc, Pro100-Lys330
T2 sequence: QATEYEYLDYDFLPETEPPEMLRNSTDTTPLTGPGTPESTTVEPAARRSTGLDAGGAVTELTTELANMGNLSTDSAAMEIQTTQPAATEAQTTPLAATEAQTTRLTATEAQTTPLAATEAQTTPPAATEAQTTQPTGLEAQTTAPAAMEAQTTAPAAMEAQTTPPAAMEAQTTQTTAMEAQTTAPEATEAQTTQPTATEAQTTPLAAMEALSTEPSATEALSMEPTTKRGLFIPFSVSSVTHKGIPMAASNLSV
Protocol: as §1

[3] = molecular target: T1, Biotin Y46,48,51(SO3) PSGL-1(42-62) …; assay: ELISA, plate-bound mAb captures biotin peptide
Protocol: as §1

[4] = molecular target: T3, Biotin sY51 PSGL-1(42-62) peptide (human, sulfotyrosine at Y51; C-terminal Lys-biotin); assay: ELISA, plate-bound mAb captures biotin peptide
T3 construct: also called Y51(SO3) PSGL-1(42-62)
T3 peptide: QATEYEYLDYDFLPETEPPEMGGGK
Protocol: as §1

[5] = molecular target: T4, Biotin sY46 PSGL-1(42-62) peptide (human, sulfotyrosine at Y46; C-terminal Lys-biotin); assay: ELISA, plate-bound mAb captures biotin peptide
T4 peptide: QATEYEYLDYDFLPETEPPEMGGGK
Protocol: as §1

[6] = molecular target: T5, Biotin sY48 PSGL-1(42-62) peptide (human, sulfotyrosine at Y48; C-terminal Lys-biotin); assay: ELISA, plate-bound mAb captures biotin peptide
T5 construct: also called sY48S
T5 peptide: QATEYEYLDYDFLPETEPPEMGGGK
Protocol: as §1

[7] = molecular target: T1, Biotin Y46,48,51(SO3) PSGL-1(42-62) …; assay: capture ELISA; against 3 x sY peptide
Protocol: as §1

[8] = molecular target: T3, Biotin sY51 PSGL-1(42-62) peptide; assay: capture ELISA; against 3 x sY peptide
Protocol: as §1

[9] = molecular target: T5, Biotin sY48 PSGL-1(42-62) peptide; assay: capture ELISA; against 3 x sY peptide
Protocol: as §1

[10] = molecular target: T6, PSGL-1(42-62) N-terminal peptide, sulfation state not told at the place (human, not fully specified; sulfation of Y46, Y48, Y51 not stated for these table columns); assay: mAb binding to PSGL-1(42-62)
T6 peptide: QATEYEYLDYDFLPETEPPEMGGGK

[11] = molecular target: T7, Cynomolgus PSGL-1(ECD)-HIS (cynomolgus macaque); assay: ELISA, plate cyno PSGL-1(ECD)-HIS
T7 construct: also called Cyno PSGL1-His
T7 chain: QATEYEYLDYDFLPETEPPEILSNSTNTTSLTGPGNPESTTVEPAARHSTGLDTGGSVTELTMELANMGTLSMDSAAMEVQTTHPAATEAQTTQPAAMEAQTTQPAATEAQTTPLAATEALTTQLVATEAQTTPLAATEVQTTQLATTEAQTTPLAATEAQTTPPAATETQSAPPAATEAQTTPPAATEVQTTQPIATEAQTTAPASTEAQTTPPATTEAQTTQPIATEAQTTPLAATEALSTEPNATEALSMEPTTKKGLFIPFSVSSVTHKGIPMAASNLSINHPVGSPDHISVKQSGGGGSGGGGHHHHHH
Protocol: Antibody binding to plate-immobilized cyno PSGL-1(ECD) was determined either at one concentration (20 nM) or by generating full antibody binding curves (0.003-200 nM). A typical ELISA was performed by overnight coating at 4° C. with 3 ug/mL/25 ul per well of recombinant cyno PSGL-1(ECD) protein in PBS, pH 7.4, in high binding half-well plates (Corning Cat. #3690). […] Anti-PSGL-1 IgG in assay buffer (blocking buffer containing 0.05% tween 20) was added into test and control wells (20 nM/25 ul/well) and the plate incubated for 45 min at 37° C. […] The plate was incubated for 45 min at 37° C., and mAb bound to plate-immobilized target determined at A450 nm using HRP substrate (3,3′,5,5′-tetramethylbenzidine (TMB)). For each antibody, duplicate values were averaged and assay background subtracted.

[12] = molecular target: T1, Biotin Y46,48,51(SO3) PSGL-1(42-62) …; assay: capture ELISA; against parent 18F02
Protocol: (§2) A typical ELISA for N-terminal PSGL-1 reactive humanized mAbs binding to Y_{46,48,51}(SO₃) PSGL-1₍₄₂₋₆₂₎ involved coating high binding half-well plates (Corning Cat. #3690) with 3 ug/mL/25 ul per well of the mAbs or with an isotype hG4 control in PBS, pH 7.4, overnight at 4° C. […] Biotinylated Y_{46,48,51}(SO₃) PSGL-1₍₄₂₋₆₂₎ was added (25 ul per well) in duplicate at 2.8 uM in assay buffer (blocking buffer containing 0.05% tween 20) and serially diluted into test and control (just blocked) wells, and the plate incubated for 45 min at 37° C. The plate was washed ×3 and an appropriate HRP-conjugated streptavidin was added (25 ul per well; Jackson Immunoresearch, Cat. #016-030-084) and the plate was incubated for 45 min at 37° C. […] For each antibody, an EC50 value was determined from sigmoidal fitted peptide titration curve.

[13] = molecular target: T1, Biotin Y46,48,51(SO3) PSGL-1(42-62) …; assay: ELISA, plate-bound mAb captures biotin 3 x sY peptide
Protocol: as §2

- EC50/EC50 3x(SO3)Y [7]: 1 fold
- EC50/EC50 3x(SO3)Y [8]: ~6 fold
- EC50/EC50 3x(SO3)Y [9]: ~6 fold
- EC50 [1]: 0.44 nM
- EC50 [2]: ~0.1 nM
- EC50 [3]: 93 nM
- EC50 [4]: ~600 nM
- EC50 [6]: ~600 nM
B2: PSG3 (antibody, V domains shown)
VH: QVQLVQSGAEVKKPGSSVRVSCKASGGSFSSYGIHWVQQAPGQGLEWMGRIIPVLRIRNYAQKFHDRVTIDADTSTGTAYMELSSLTSDDTAVYYCAGSRQGVAPTGYWGQGTMVTVSS
VL: QAVLTQPSSLSASPGASASLTCNLRSGIDVGTYRIYWYQQKPGSPPQYLLRYKSDSDKQQGSGVPSRFSGTKDASANAGILLISGLQSEDEADYYCMIWHSNGWVFGGGTKLTVL
notes: Control anti-PSGL-1 mAb; only variable domains given

- binding result [10]: no binding
- binding result [11]: no binding
B3: 20H10 (antibody, V domains shown)
VH: QVQLQQPGTELVKPGASVKLSCKASGYTFTNFWMHWVRQRPGQGLEWIGKINPGNGGTRYNEKFKTKATLTVDRSSSTACIQLSSLTSEDSAVYYCTSTNWDPYFDYWGQGTTLTVSS
VL: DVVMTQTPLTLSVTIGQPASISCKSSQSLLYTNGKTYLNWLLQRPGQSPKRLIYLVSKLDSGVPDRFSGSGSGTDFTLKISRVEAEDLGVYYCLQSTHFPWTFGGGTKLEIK
notes: Mouse hybridoma mAb; only variable domains given

- N-term peptide EC50 (normalized) [12]: 2.1 fold
- EC50 [13]: 150 nM
B5: 18F02.002 (antibody, IgG4, V domains shown)
VH: EVQLVQSGAEVKKPGSSVKVSCKASGYTFTSYWMHWVRQAPGQGLEWMGMIHPNSGRTNYNEKFKSRVTITVDKSTSTAYMELSSLRSEDTAVYYCARSDYWGQGTLVTVSS
VL: DIVMTQTPLSLSVTPGQPASISCRSSKSLLHSDGITYLYWFLQKPGQSPQLLIYRMSNLASGVPDRFSGSGSGTDFTLKISRVEAEDVGVYYCAQMLEFPRTFGQGTKLEIK
notes: Humanised

Further lines, the binder ahead of its results:

B1: SELK1 (antibody, V domains shown)
VH: QVQLQQSGPGLVKPSQTLSLTCAISGDSVSSNIAAWHWIRLSPSRGLEWLGRTYYRRSKWNYDYALSVKSRININPDTSKNLFSLQLNSVTPEDTAVYYCTRGGGRAHSAWGQGTLVTVSS
VL: EIVLTQSPGTLSVSPGERATLSCRASQSVSRSHLAWYQQKPGQAPRLLIFGASSRATGIPDRFSGSGSGTDFTLTISRLEPEDFAVYYCQQYGRPGVTFGQGTKVEIK
notes: as for B2
- EC50 [1]: 0.07 nM
- EC50 [2]: 0.02 nM
- EC50 [3]: 6.2 nM
- EC50 [4]: 129 nM
- EC50 [5]: 167 nM
- EC50 [6]: 8.34 nM

B4: 18F02.001 (antibody, IgG4, V domains shown)
VH: B5 VH with E1Q
VL: B5 VL
notes: Humanised
- N-term peptide EC50 (normalized) [12]: 2.3 fold
- EC50 [13]: 160 nM
